Measured values published in patent publication US20160159885A1.

Tests used:
[1] = target: thermolysin (Bacillus thermoproteolyticus) (UniProt P00800); assay: cell-based or functional assay
pseudolysin = pseudolysin (UniProt P14756); assay: cell-based or functional assay
UniProt P14756, sequence (P14756 198-498 limits assumed): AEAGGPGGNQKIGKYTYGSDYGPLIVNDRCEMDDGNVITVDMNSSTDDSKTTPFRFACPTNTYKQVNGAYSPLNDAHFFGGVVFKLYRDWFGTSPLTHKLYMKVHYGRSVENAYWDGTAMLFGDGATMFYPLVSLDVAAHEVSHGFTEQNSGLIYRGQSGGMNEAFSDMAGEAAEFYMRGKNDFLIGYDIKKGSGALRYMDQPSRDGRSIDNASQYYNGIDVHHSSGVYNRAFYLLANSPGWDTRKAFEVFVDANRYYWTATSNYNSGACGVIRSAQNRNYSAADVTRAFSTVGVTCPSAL

UniProt P00800, sequence (P00800 233-548 limits assumed): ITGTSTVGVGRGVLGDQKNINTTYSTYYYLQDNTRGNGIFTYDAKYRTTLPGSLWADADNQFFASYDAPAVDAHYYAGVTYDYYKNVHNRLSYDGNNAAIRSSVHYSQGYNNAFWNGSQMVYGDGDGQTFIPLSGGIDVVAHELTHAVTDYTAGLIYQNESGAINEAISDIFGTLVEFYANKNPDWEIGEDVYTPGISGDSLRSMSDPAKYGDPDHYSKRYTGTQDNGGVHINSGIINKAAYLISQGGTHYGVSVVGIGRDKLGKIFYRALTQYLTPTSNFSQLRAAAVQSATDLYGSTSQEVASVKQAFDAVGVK

**Q.** Which results are given for “wtIMPIα (wild-type insect metalloproteinase inhibitor IMPIα) (from UniProt P82176 20-88)”?
**A.** IC50 wt TLN; column Pos35 InA [1]: 12.6 nM; IC50 wt TLN; column Pos35 InF [1]: 12.6 nM; IC50 wt TLN; column Pos35 InL [1]: 12.6 nM; IC50 wt TLN; column Pos35 InM [1]: 12.6 nM; IC50 wt TLN; column Pos35 InV [1]: 12.6 nM; IC50 wt TLN; column Pos35 InW [1]: 12.6 nM; IC50 wt TLN; column Pos35 InY [1]: 12.6 nM; IC50 wt TLN; column Pos36 InA [1]: 12.4 nM; IC50 wt TLN; column Pos36 InD [1]: 12.5 nM; IC50 wt TLN; column Pos36 InE [1]: 12.5 nM; IC50 wt TLN; column Pos36 InF [1]: 12.6 nM; IC50 wt TLN; column Pos36 InG [1]: 12.6 nM; IC50 wt TLN; column Pos36 InH [1]: 12.4 nM; IC50 wt TLN; column Pos36 InK [1]: 12.5 nM; IC50 wt TLN; column Pos36 InM [1]: 12.4 nM; IC50 wt TLN; column Pos36 InQ [1]: 12.6 nM; IC50 wt TLN; column Pos36 InR [1]: 12.6 nM; IC50 wt TLN; column Pos36 InT [1]: 12.4 nM; IC50 wt TLN; column Pos36 InV [1]: 12.6 nM; IC50 wt TLN; column Pos36 InW [1]: 12.5 nM; IC50 wt TLN; column Pos36 InY [1]: 12.6 nM; IC50 wt TLN; column Pos37 NnA [1]: 12.6 nM; IC50 wt TLN; column Pos37 NnC [1]: 12.7 nM; IC50 wt TLN; column Pos37 NnD [1]: 12.1 nM; IC50 wt TLN; column Pos37 NnE [1]: 12.6 nM; IC50 wt TLN; column Pos37 NnG [1]: 12.6 nM; IC50 wt TLN; column Pos37 NnH [1]: 12.8 nM; IC50 wt TLN; column Pos37 NnL [1]: 11.1 nM; IC50 wt TLN; column Pos37 NnM [1]: 11.7 nM; IC50 wt TLN; column Pos37 NnP [1]: 12 nM; IC50 wt TLN; column Pos37 NnQ [1]: 12.6 nM; IC50 wt TLN; column Pos37 NnS [1]: 12.5 nM; IC50 wt TLN; column Pos37 NnV [1]: 12.7 nM; IC50 wt TLN; column Pos37 NnW [1]: 12.7 nM; IC50 wt TLN; column Pos37 NnY [1]: 12.5 nM; IC50 wt TLN; column Pos38 InF [1]: 12.6 nM; IC50 wt TLN; column Pos38 InG [1]: 12.5 nM; IC50 wt TLN; column Pos38 InH [1]: 12.5 nM; IC50 wt TLN; column Pos38 InL [1]: 12.6 nM; IC50 wt TLN; column Pos38 InM [1]: 12.5 nM; IC50 wt TLN; column Pos38 InQ [1]: 12.6 nM; IC50 wt TLN; column Pos38 InV [1]: 12.6 nM; IC50 wt TLN; column Pos38 InW [1]: 12.4 nM; IC50 wt TLN; column Pos38 InY [1]: 12.6 nM; IC50 wt TLN; column Pos39 RnA [1]: 12.5 nM; IC50 wt TLN; column Pos39 RnF [1]: 12.5 nM; IC50 wt TLN; column Pos39 RnG [1]: 12.7 nM; IC50 wt TLN; column Pos39 RnI [1]: 12.5 nM; IC50 wt TLN; column Pos39 RnK [1]: 12.5 nM; IC50 wt TLN; column Pos39 RnL [1]: 12.4 nM; IC50 wt TLN; column Pos39 RnM [1]: 12.6 nM; IC50 wt TLN; column Pos39 RnQ [1]: 12.6 nM; IC50 wt TLN; column Pos39 RnV [1]: 12.5 nM; IC50 wt TLN; column Pos39 RnW [1]: 12.4 nM; IC50 wt TLN; wt (avg), Pos35 block [1]: 12.6 nM; IC50 wt TLN; wt (avg), Pos36 block [1]: 12.5 nM; IC50 wt TLN; wt (avg), Pos37 block [1]: 12.4 nM; IC50 wt TLN; wt (avg), Pos38 block [1]: 12.5 nM; IC50 wt TLN; wt (avg), Pos39 block [1]: 12.5 nM; IC50 wt PLN; column Pos35 InA (pseudolysin): 21.8 nM; IC50 wt PLN; column Pos35 InF (pseudolysin): 21.9 nM; IC50 wt PLN; column Pos35 InL (pseudolysin): 21.9 nM; IC50 wt PLN; column Pos35 InM (pseudolysin): 21.9 nM; IC50 wt PLN; column Pos35 InV (pseudolysin): 22.2 nM; IC50 wt PLN; column Pos35 InW (pseudolysin): 22.1 nM; IC50 wt PLN; column Pos35 InY (pseudolysin): 21.9 nM; IC50 wt PLN; column Pos36 InA (pseudolysin): 22 nM; IC50 wt PLN; column Pos36 InD (pseudolysin): 20.9 nM; IC50 wt PLN; column Pos36 InE (pseudolysin): 21.6 nM; IC50 wt PLN; column Pos36 InF (pseudolysin): 22.3 nM; IC50 wt PLN; column Pos36 InG (pseudolysin): 21.6 nM; IC50 wt PLN; column Pos36 InH (pseudolysin): 22 nM; IC50 wt PLN; column Pos36 InK (pseudolysin): 22 nM; IC50 wt PLN; column Pos36 InM (pseudolysin): 22 nM; IC50 wt PLN; column Pos36 InQ (pseudolysin): 21.9 nM; IC50 wt PLN; column Pos36 InR (pseudolysin): 22.3 nM; IC50 wt PLN; column Pos36 InT (pseudolysin): 21.9 nM; IC50 wt PLN; column Pos36 InV (pseudolysin): 22.1 nM; IC50 wt PLN; column Pos36 InW (pseudolysin): 22.1 nM; IC50 wt PLN; column Pos36 InY (pseudolysin): 22.2 nM; IC50 wt PLN; column Pos37 NnA (pseudolysin): 21.9 nM; IC50 wt PLN; column Pos37 NnC (pseudolysin): 20.7 nM; IC50 wt PLN; column Pos37 NnD (pseudolysin): 22.6 nM; IC50 wt PLN; column Pos37 NnE (pseudolysin): 21.9 nM; IC50 wt PLN; column Pos37 NnG (pseudolysin): 21.8 nM; IC50 wt PLN; column Pos37 NnH (pseudolysin): 21.2 nM; IC50 wt PLN; column Pos37 NnL (pseudolysin): 20.8 nM; IC50 wt PLN; column Pos37 NnM (pseudolysin): 30.8 nM; IC50 wt PLN; column Pos37 NnP (pseudolysin): 20.8 nM; IC50 wt PLN; column Pos37 NnQ (pseudolysin): 22.2 nM; IC50 wt PLN; column Pos37 NnS (pseudolysin): 21.5 nM; IC50 wt PLN; column Pos37 NnV (pseudolysin): 21.2 nM; IC50 wt PLN; column Pos37 NnW (pseudolysin): 21.5 nM; IC50 wt PLN; column Pos37 NnY (pseudolysin): 21.5 nM; IC50 wt PLN; column Pos38 InF (pseudolysin): 21.1 nM; IC50 wt PLN; column Pos38 InG (pseudolysin): 22.8 nM; IC50 wt PLN; column Pos38 InH (pseudolysin): 23.1 nM; IC50 wt PLN; column Pos38 InL (pseudolysin): 21.7 nM; IC50 wt PLN; column Pos38 InM (pseudolysin): 21.4 nM; IC50 wt PLN; column Pos38 InQ (pseudolysin): 22.2 nM; IC50 wt PLN; column Pos38 InV (pseudolysin): 21.5 nM; IC50 wt PLN; column Pos38 InW (pseudolysin): 21.1 nM; IC50 wt PLN; column Pos38 InY (pseudolysin): 21.1 nM; IC50 wt PLN; column Pos39 RnA (pseudolysin): 22.1 nM; IC50 wt PLN; column Pos39 RnF (pseudolysin): 20.5 nM; IC50 wt PLN; column Pos39 RnG (pseudolysin): 20.3 nM; IC50 wt PLN; column Pos39 RnI (pseudolysin): 21.2 nM; IC50 wt PLN; column Pos39 RnK (pseudolysin): 22 nM; IC50 wt PLN; column Pos39 RnL (pseudolysin): 20.1 nM; IC50 wt PLN; column Pos39 RnM (pseudolysin): 22.1 nM; IC50 wt PLN; column Pos39 RnQ (pseudolysin): 22.1 nM; IC50 wt PLN; column Pos39 RnT (pseudolysin): 21.9 nM; IC50 wt PLN; column Pos39 RnV (pseudolysin): 21.8 nM; IC50 wt PLN; column Pos39 RnW (pseudolysin): 19.9 nM; IC50 wt PLN; column Pos39 RnY (pseudolysin): 22.5 nM; IC50 wt PLN; wt (avg), Pos35 block (pseudolysin): 22 nM; IC50 wt PLN; wt (avg), Pos36 block (pseudolysin): 21.9 nM; IC50 wt PLN; wt (avg), Pos37 block (pseudolysin): 22.2 nM; IC50 wt PLN; wt (avg), Pos38 block (pseudolysin): 21.8 nM; IC50 wt PLN; wt (avg), Pos39 block (pseudolysin): 21.4 nM
